US12533403B2, “Peptide conjugated particles” (NORTHWESTERN UNIVERSITY, priority 2013, dated 2026)

Test system: allergic airway inflammation (murine allergy model)
Assay: Therapeutic treatment of OVA/Alum-induced allergic airway inflammation
Assay type: in vivo, mice
Settings: treated after exposure to OVA
Experimental: To test the therapeutic effect of OVA encapsulated in PLG particles on airway inflammation, mice were treated intraperitoneally with OVA/Alum at a dose of 10 μg/mouse on day 0 and day 14. The mice were intravenously administered with OVA-PLG on days 28, and 42. Between days 56-58, the mice were treated three times with aerosolized OVA.
The animals were treated as described above except that on days 28 and 42, the mice were treated with either OVA encapsulated in PLG particles, or OVA coupled to PLG particles.
In the allergy model, coupled nanoparticles have a propensity to cause anaphylaxis and are not an effective therapy. […] Animals were exposed to OVA as an allergen, and were then treated with either a sham-PLG or TIMP particle, a PLG or TIMP particle with OVA, or no treatment.

B1: OVA-PLG surface coupled particles: PLGA particle with OVA coupled to the outside of the particle (conjugate, UniProt P01012 2-386, looked up)
Ovalbumin: GSIGAASMEFCFDVFKELKVHHANENIFYCPIAIMSALAMVYLGAKDSTRTQINKVVRFDKLPGFGDSIEAQCGTSVNVHSSLRDILNQITKPNDVYSFSLASRLYAEERYPILPEYLQCVKELYRGGLEPINFQTAADQARELINSWVESQTNGIIRNVLQPSSVDSQTAMVLVNAIVFKGLWEKAFKDEDTQAMPFRVTEQESKPVQMMYQIGLFRVASMASEKMKILELPFASGTMSMLVLLPDEVSGLEQLESIINFEKLTEWTSSNVMEERKIKVYLPRMKMEEKYNLTSVLMAMGITDVFSSSANLSGISSAESLKISQAVHAAHAEINEAGREVVGSAEAGVDAASVSEEFRADHPFLFCIKHIATNAVLFFGRCVSP
modifications: coupled to PLG particles
TH2 response: fail to reduce the TH2 response
